Read-outs that look alike come from different tables or passages of the source. Values belong to the binder of their own block, whether it stands above or below them.
Columns and labels:
[1] = target: T1, Prostaglandin D2 receptor 2 (CRTH2R) (UniProt Q9Y5Y4 1-395); test: FACS binding; CHO CRTH2R-positive cells
T1 chain: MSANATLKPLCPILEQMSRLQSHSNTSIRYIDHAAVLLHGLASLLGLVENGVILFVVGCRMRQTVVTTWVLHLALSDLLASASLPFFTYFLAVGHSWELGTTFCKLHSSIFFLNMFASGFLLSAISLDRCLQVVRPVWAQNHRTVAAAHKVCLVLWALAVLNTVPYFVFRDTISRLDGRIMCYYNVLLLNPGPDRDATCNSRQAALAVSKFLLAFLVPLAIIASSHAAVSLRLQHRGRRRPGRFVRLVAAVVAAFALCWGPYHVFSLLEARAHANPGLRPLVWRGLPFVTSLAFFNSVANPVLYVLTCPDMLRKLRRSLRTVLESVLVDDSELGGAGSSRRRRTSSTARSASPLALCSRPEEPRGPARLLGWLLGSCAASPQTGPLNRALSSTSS

[2] = target: T2, Prostaglandin D2 receptor 2 (CRTH2R) (human, UniProt Q9Y5Y4 1-395); test: cell-based or functional assay
T2 sequence: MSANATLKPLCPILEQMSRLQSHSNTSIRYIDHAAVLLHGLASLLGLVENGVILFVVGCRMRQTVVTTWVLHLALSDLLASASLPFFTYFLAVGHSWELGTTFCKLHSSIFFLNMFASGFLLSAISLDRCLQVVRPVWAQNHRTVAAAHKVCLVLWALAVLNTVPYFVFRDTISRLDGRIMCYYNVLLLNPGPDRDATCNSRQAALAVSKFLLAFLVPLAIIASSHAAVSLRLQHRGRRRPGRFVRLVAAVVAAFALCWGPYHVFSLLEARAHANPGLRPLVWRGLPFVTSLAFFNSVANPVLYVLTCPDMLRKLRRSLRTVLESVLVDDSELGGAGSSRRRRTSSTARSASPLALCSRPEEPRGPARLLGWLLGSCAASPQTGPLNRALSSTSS

[3] = target: T1, Prostaglandin D2 receptor 2 (CRTH2R); test: FACS binding; CHO CRTH2R-positive cells
[4] = target: T1, Prostaglandin D2 receptor 2 (CRTH2R); test: FACS binding; CHO CRTH2R-positive cells
[5] = target: T1, Prostaglandin D2 receptor 2 (CRTH2R); test: FACS binding; CHO CRTH2R-positive cells

EC50 [1]: 3.95 nM
B1: CRTH2 66 (antibody)
chain 1: QVQLVESGGGVVQPGRSLRLSCAASGFDFSGYGMHWVRQAPGKGLEWVAVISYEGSNKFYADSVKGRFTISRDNSKNTLYLQMNSLRAEDTAVYYCARDLRELECEEWTIEVHGQEFAVHQDRGGVFSRGPCVDPRGVAGSFDVWGQGTLVTVSS
chain 2: EIVMTQSPATLSVSPGERATLSCRASQGVGSNLAWYQQKPGQAPRLLIYRTSIRATGIPARFSGSGSGTEFTLTISSLQSEDFAVYYCQQYYSWPPLTFGGGTKVEIK

antagonist activity in PGD2-induced cAMP assay at 33 nM IgG [2]: > 20%
B2: CRTH2-70 (antibody, V domains shown)
VH: QVQLVQSGAEVKKPGSSVKVSCKASGGTFSNHAIIWVRQAPGQGLEWMGGIIPIFGTPSYAQKFQGRVTITADESTSTAYMELSSLRSEDTAVYYCARDMYYDFDVISAGVVGAGNPEVVPADDAFDIWGQGTLVTVSS
VL: QSVLTQPPSVSAAPGQKVTISCSGSTSNIGNNFVSWYQQLPGTAPKLLIYDNEKRPSGIPDRFSGSKSGTSATLGITGLQTGDEADYYCGTWDERQTDESYVFGGGTKLTVL

IC50 fold difference of the PGD2 dose response curve (cAMP assay, 100 nM IgG) [2]: > 2 fold
B3: CRTH2-27 (antibody, V domains shown)
VH: QVQLVESGGGVVQPGRSLRLSCAASGFTFDNYGMHWVRQAPGKGLEWVAVISYEGSNKKYADSVKGRFTISRDNSKNTLYLQMNSLRAEDTAVYYCARDMYYDFGSIYGEDVVGELPEVVPADDAFDIWGQGTLVTVSS
VL: QSALTQPASVSGSPGQSITISCTGTSNDVGAYNFVSWYQQHPGKAPKLMIYDISNRPSGVSNRFSGSKSGNTASLTISGLQAEDEADYYCSSYTRSNTRVFGGGTKLTVL

EC50 [3]: 12.6 nM
B4: CRTH2 35 (antibody, V domains shown)
VH: QVQLVQSGAEVKKPGSSVKVSCKASGGTFRSYAISWVRQAPGQGLEWMGGIIPISGTTNYAQKFQGRVTITADESTSTAYMELSSLRSEDTAVYYCARANQHFTRIFGNYQIYFGHFGYHYYGMDVWGQGTLVTVSS
VL: QSALTQPASVSGSPGQSITISCTGTSSDIGGYEFVSWYQQHPGKAPKLMIYGVSRRPSGVSNRFSGSKSGNTASLTISGLQAEDEADYYCGSYTSSSTPYVFGGGTKLTVL

antagonist activity in PGD2-induced cAMP assay at 33 nM IgG [2]: > 20%
B5: CRTH2-24 (antibody, V domains shown)
VH: QVQLVQSGAEVKKPGSSVKVSCKASGGSFSNYGISWVRQAPGQGLEWMGGIIPLIGTANYAQKFQGRVTITADESTSTAYMELSSLRSEDTAVYYCARDMYYDFTLGPQSIGPLGEVVPADDAFDIWGQGTLVTVSS
VL: QSVLTQPPSVSAAPGQKVTISCSGSSSNIGNNFVSWYQQLPGTAPKLLIYDNIQRPSGIPDRFSGSKSGTSATLGITGLQTGDEADYYCGTWDTSLSAVVFGGGTKLTVLR

antagonist activity in PGD2-induced cAMP assay at 33 nM IgG [2]: > 20%
EC50 [4]: 8.61 nM
B6: CRTH2-74 (antibody)
VH: QVQLVESGGGVVQPGRSLRLSCAASGFSFSEYGIHWVRQAPGKGLEWVAVISYEGSNEYYADSVKGRFTISRDNSKNTLYLQMNSLRAEDTAVYYCARANQHFGPVAGGATPSEEPGSQLTRAELGWDAPPGQESLADELLQLGTEHGYHYYGMDVWGQGTLVTVSS
VL: QSVLTQPPSVSAAPGQKVTISCSGSTSNIGKNYVSWYQQLPGTAPKLLIYDDDERPSGIPDRFSGSMSGTSATLGITGLQTGDEADYYCEAWDADLSGAVFGGGTKLTVL

IC50 fold difference of the PGD2 dose response curve (cAMP assay, 100 nM IgG) [2]: > 2 fold
antagonist activity in PGD2-induced cAMP assay at 33 nM IgG [2]: > 20%
B7: CRTH2-9 (antibody, V domains shown)
VH: QVQLVQSGAEVKKPGSSVKVSCKASGGTFSSYAISWVRQAPGQGLEWMGGIIPIFGTANYAQKFQGRVTITADESTSTAYMELSSLRSEDTAVYYCARDMYYDFWLGDQSTGSLIGAEVVPADDAFDIWGQGTLVTVSS
VL: QSVLTQPPSVSAAPGQKVTISCSGSTSNIGNNYVSWYQQLPGTAPKLLIYENDERPSGIPDRFSGSKSGTSATLGITGLQTGDEADYYCATWDTRLSAVVFGGGTKLTVL

antagonist activity in PGD2-induced cAMP assay at 33 nM IgG [2]: > 20%
B8: CRTH2-28 (antibody, V domains shown)
VH: QVQLVQSGAEVKKPGSSVNVSCKASGGTFSDYAFSWVRQAPGQGLEWMGAIIPFFGTVNYAQKFQGRVTITADESTSTAYMELSSLRSEDTAVYYCARDMYYDFATGTGGPEDDLYPQGELNDGYRIEVVPADDAFDIWGQGTLVTVSS
VL: QSVLTQPPSVSAAPGQKVTISCSGSISNIGKNYVSWYQQLPGTAPKLLIYDDHKRPSGIPDRFSGSKSGTSATLGITGLQTGDEADYYCATWDRGLSAAVFGGGTKLTVL

antagonist activity in PGD2-induced cAMP assay at 33 nM IgG [2]: > 20%
B9: CRTH2-60 (antibody, V domains shown)
VH: QVQLVQSGAEVKKPGSSVKVSCKASGGTFKNYAINWVRQAPGQGLEWMGAIIPKFGAANYAQKFQGRVTITADESTSTAYMELSSLRSEDTAVYYCARANQHFSAVRGLAFGYGYRIGGYHYYGMDVWGQGTLVTVSS
VL: QSVLTQPPSVSAAPGQKVTISCSGSTSNIGINYVSWYQQLPGTAPKLLIYENRKRPSGIPDRFSGSKSGTSATLGITGLQTGDEADYYCATWDASLKNLVFGGGTKLTVL

IC50 fold difference of the PGD2 dose response curve (cAMP assay, 100 nM IgG) [2]: > 2 fold
EC50 [3]: 12.4 nM
B10: CRTH2-32 (antibody, V domains shown)
VH: QVQLVESGGGVVQPGRSLRLSCAASGFTFSKHGMHWVRQAPGKGLEWVAFISYEGSEKYYADSVKGRFTISRDNSKNTLYLQMNSLRAEDTAVYYCARDMYYDFHYSTVGATYYYYLGSETEVVPADDAFDIWGQGTLVTVSS
VL: QSALTQPASVSGSPGQSITISCTGTSSGVGGYDYVSWYQQHPGKAPKLMIYDDNNRPSGVSNRFSGSKSGNTASLTISGLQAEDEADYYCSSYTGSSTLYVFGGGTKLTVL

IC50 fold difference of the PGD2 dose response curve (cAMP assay, 100 nM IgG) [2]: > 2 fold
antagonist activity in PGD2-induced cAMP assay at 33 nM IgG [2]: > 20%
B11: CRTH2-42 (antibody)
VH: QVQLVESGGGVVQPGRSLRLSCAASGFAFSSYAMHWVRQAPGKGLEWVAVISYEGSNEYYADSVKGRFTISRDNSKNTLYLQMNSLRAEDTAVYYCARDLRELECEEWTVLQYGKFHMRWAESGEGSLSRGPCVDPRGVAGSFDVWGQGTLVTVSS
VL: QSALTQPASVSGSPGQSITISCTGTSSDVGGYRYVSWYQQHPGKAPKLMIYNVNYRPSGVSNRFSGSKSGNTASLTISGLQAEDEADYYCSSYRSSSTLGVFGGGTKLTVL

EC50 [1]: 158 nM
B12: CRTH2 57 (antibody, V domains shown)
VH: QVQLVQSGAEVKKPGSSVKVSCKASGGTFSSYAMSWVRQAPGQGLEWMGGIIPLFGTTDYAQKFQGRVTITADESTSTAYMELSSLRSEDTAVYYCARANQHFVKIQGAPVSTPVPGFGTTGYHYYGMDVWGQGTLVTVSS
VL: QSVLTQPPSVSAAPGQKVTISCSGSSSNIEDNYVSWYQQLPGTAPKLLIYDNFKRPSGIPDRFSGSKSGTSATLGITGLQTGDEADYYCGTWDTSLSAALFGGGTKLTVL

EC50 [5]: 73.8 nM
antagonist activity in PGD2-induced cAMP assay at 33 nM IgG [2]: > 20%
B13: CRTH2-15 (antibody, V domains shown)
VH: QVQLVQSGAEVKKPGSSVKVSCKASGGTFSTYAIDWVRQAPGQGLEWMGGIIPLFGSPNYAQKFQGRVTITADESTSTAYMELSSLRSEDTAVYYCARANQHFFLYEGTSSSWLHVGHARYGYHYYGMDVWGQGTLVTVSS
VL: QSVLTQPPSVSAAPGQKVTISCSGSGSNIGSNYVSWYQQLPGTAPKLLIYDNIRRPSGIPDRFSGSKSGTSATLGITGLQTGDEADYYCAAWDTRLSAGVFGGGTKLTVL

antagonist activity in PGD2-induced cAMP assay at 33 nM IgG [2]: > 20%
B14: CRTH2-8 (antibody, V domains shown)
VH: QVQLVQSGAEVKKPGSSVKVSCKASGGTFTDYAISWVRQAPGQGLEWMGGIIPFFGSPNYAQKFQGRVTITADESTSTAYMELSSLRSEDTAVYYCARDMYYDFAAGLEGTITEVFDEEGHQGGTEVVPADDAFDIWGQGTLVTVSS
VL: QSVLTQPPSVSAAPGQKVTISCSGSSSNIGKNYVSWYQQLPGTAPKLLIYDNNQRPSGIPDRFSGSKSGTSATLGITGLQTGDEADYYCGTWDTSLTSVVFGGGTKLTVL

antagonist activity in PGD2-induced cAMP assay at 33 nM IgG [2]: > 20%
EC50 [4]: 16.7 nM
B15: CRTH2-19 (antibody, V domains shown)
VH: QVQLVQSGAEVKKPGSSVKVSCKASGGTFSSHAINWVRQAPGQGLEWMGRIIPIVGTTTYAQKFQGRVTITADESTSTAYMELSSLRSEDTAVYYCARDMYYDFDYFGLTLTGDRNDDEVVPADDAFDIWGQGTLVTVSS
VL: QSALTQPASVSGSPGQSITISCTGTSSDVGGYDYVTWYQQHPGKAPKLMIYDVDTRPSGVSNRFSGSKSGNTASLTISGLQAEDEADYYCSSYTTSTSYVFGGGTKLTVL

antagonist activity in PGD2-induced cAMP assay at 33 nM IgG [2]: > 20%
EC50 [3]: 23.2 nM
B16: CRTH2-45 (antibody)
VH: QVQLVESGGGVVQPGRSLRLSCAASGFTFSHYAMHWVRQAPGKGLEWVADISHEGSNKYYADSVKGRFTISRDNSKNTLYLQMNSLRAEDTAVYYCARDGRGSLPRPKGGPTSGGGFSTNIGYGFVVQSYDSSEDSGGAFDIWGQGTLVTVSS
VL: QSVLTQPPSVSAAPGQKVTISCSGTSSNIENNYVSWYQQLPGTAPKLLIYDNVKRPSGIPDRFSGSKSGTSATLGITGLQTGDEADYYCGTWDNTVSAPWVFGGGTKLTVL

Source: patent US20210102192A1 (TWIST BIOSCIENCE, published 2021)
